Test system: Nlrc5 and Nlrc5 target genes
Assay: Expression of antigen presentation genes / surface MHCI in B16 cells
Format: cell-based, mouse
Conditions: B16 cells stimulated 24 hr (FIGS. 13E-G)

B1: interferon-gamma: interferon gamma (R&D Systems) used to stimulate cells (protein, UniProt P01579 24-161, looked up)
Interferon gamma: QDPYVKEAENLKKYFNAGHSDVADNGTLFLGILKNWKEESDRKIMQSQIVSFYFKLFKNFKDDQSIQKSVETIKEDMNVKFFNSNKKKRDDFEKLTNYSVTDLNVQRKAIHELIQVMAELSPAAKTGKRKRSQMLFRG
B1 was tested. Which “expression of PSMB9 and surface expression of MHCI (H-2Kb)” value did it give?
Its value is “increased”.

Reference: patent US20230301998A1, “METHODS AND COMPOSITIONS FOR INDUCTION OF ANTITUMOR IMMUNITY” (Sanford Burnham Prebys Medical Discovery Institute, priority 2020, published 2023)
